B1: MA1 monoclonal antibody (antibody, V domains shown)
VH: QVQLKESGPGLVAPSQSLSITCTVSGFSLSDYSISWIRQPPGKGLEWLGVIWGGGSTYYNSALKSRLSISKDNSKSQVFLKMNSLQTDDTAMYYCAKHPLYYGSNSDGYYAMDYWGQGTSVTVSS
VL: DIVMTQSHKFMSTSVGDRVSITCKASQDVGIVVAWYQQKPGQSPKLLIYWASTRHTGVPDRFTGSGSGTDFTLTISNVQSEDLADYFCQQYSSYPLTFGGGTKLEIK
notes: also called group I mAb; source: hybridoma cell line or transfection of linear expression cassettes
B2: MA1scFv (scFv, V domains shown)
VH: QVQLKESGPGLVAPSQSLSITCTVSGFSLSDYSISWIRQPPGKGLEWLGVIWGGGSTYYNSALKSRLSISKDNSKSQVFLKMNSLQTDDTAMYYCAKHPLYYGSNSDGYYAMDYWGQGTSVTVSS
VL: DIVMTQSHKFMSTSVGDRVSITCKASQDVGIVVAWYQQKPGQSPKLLIYWASTRHTGVPDRFTGSGSGTDFTLTISNVQSEDLADYFCQQYSSYPLTFGGGTKLEIK

Assays:
[1] = biological target: T1, SARS-CoV-2 RBD (residues Arg319-Phe541), His-tagged (SARS-CoV-2, UniProt P0DTC2); test: SPR; conditions: both partners purified
[2] = biological target: T1, SARS-CoV-2 RBD (residues …); test: cryo-EM structure; conditions: both partners purified

Row | Binder | binding result [1] | binding result [2]
1 | B1 | binds | –
2 | B2 | – | binds

— paper PMC8441738 (MedComm, 2021)
